Results published in a protein production outcome set (Wang et al. 2014).

Assay: label from the status in PepcDB records

| Sequence | protein production |
| --- | --- |
| MQHGARHRWGLTSGYRPGSGRRPGPSAVVAVAAFALVVASQGAAVARPAQAAAADREFASSFESGEPAPDWLSTVDTAADGSKRASGVDGGYSTGIPGNVTDHVTDVRAGAENTGAGEVKENLVDGESSTKWLTFTPTGWAEFDLDAPVKLVTYALTSANDADERDPADWTLQGSTDGKDWKTLDTRTGESFAERFQTKSYDLASPAEYQHFRLDITKNHGADLLQLADVQFSTGGTSDPAPKDMLSLVDRGPSGSPTAKAGAGFTGKRALRYAGTHKADARAYSYNKVFDVNVGVGRDTELSYRIFPSMADKDRDYDATNVSVDLVFTDGTYLSDLKATDQHGFALTPQGQGAAKILYVNQWNNVVSRIGSVAAGRTVDRILVAYDSPKGPAKFRGWLDDIALKAAPPEKPKAHLSDYALTTRGTNSSSGFSRGNNFPATAVPHGFNFWTPVTNAGSLSWLYDYARSNNADNLPTIQAFSASHEPSPWMGDRQTFQVMPSAASGTPDTGRTARALAFRHENETARPYYYGVTFENGLKAEMAPTDHAAALRFTYPGDDASVLFDNVTDQAGLTLDKEHGIVTGYSDVKSGLSTGATRLFVYGVFDAPVKEGASSGVKGYLRFAPGADHTVTLRLATSLISVDQAKDNLGQEIPDGTSFTTVKNRAQQQWDKLLGKVEVEGATPDQLTTLYSSMYRLYLYPNSGFEKIGSKYRYASPFQPMPSPDTPTHTGAKIVDGKVYVNNGFWDTYRTTWPAYSFLTPGQAGEMVDGFVQQYKDGGWTSRWSSPGYADLMTGTSSDVAFADAYVKGVDFDAKAAYDAAVKNATVVPPSSGVGRKGMATSPFLGYTSTDTSEGLSWAMEGYNNDYGIARMGQALYKKTGKKRYKEEAAYFLNRAQDYVKLFDGKAGFFQGRDGKGDWRVDSATYDPRVWGYDYTETNGWGYAFTAPQDSRGLANLYGGRGALAKKLDTYFATPETASPDFVGSYGGVIHEMTEARDVRMGMYGHSNQVAHHVNYMYDAAGRPWKTQANVREVLSRLYTGSEIGQGYHGDEDNGEQSAWYLFSALGFYPLVMGSGEYAIGSPLFTKATVHLENGRDLVVKAPKNSAKNVYVQGLKVNGKKWTSTSLPHSLIAKGGVLAFDMGAKPSSWGSGGGAGPVSITKGDQVPSPRADAIKGGGALFDDTSATSATVTSVELPVAARTKAVQYTLTSSSDHTAAPAGWVLEASADGTHWTTVDRRTDESFTWDRQTRVFSIAHPGKYAHYRLVPTAEATLAEVELLS | failed |
| MNTMLNPHYQQIWQTVQLIPQGKVACYGQIADLAGLPGRARLVGKSLGKVPKDGWRGQRVPWFRVINSQGKISFPPGSENFDKQKHHLQDEQVVVIGSRIKLKEFQWKPDLSELLFSLEFLEHHHHHH | failed |
| MNAVTEGRKVLLEIADLKVHFEIKDGKQWFWQPPKTLKAVDGVTLRLYEGETLGVVGESGCGKSTFARAIIGLVKATDGHVAWLGKELLGMKPDEWRAVRSDIQMIFQDPLASLNPRMTIGEIIAEPLRTYHPKMSRQEVRERVKAMMLKVGLLPNLINRYPHEFSGGQCQRIGIARALILEPKLIICDEPVSALDVSIQAQVVNLLQQLQREMGLSLIFIAHDLAVVKHISDRVLVMYLGHAVELGTYDEVYHNPLHPYTRALMSAVPIPDPDLEKNKTIQLLEGELPSPINPPSGCVFRTRCPIAGPECAKTRPVLEGSFRHAVSCLKVDPL | failed |
| MSRMETSRTLSAFPKIISVDDHTVEPPDVWRDRLPKKYQDTGPRIVRAPLKEMTFLGGKFAPVMGGPGDDGPLGDWWVYEDLHRPLTRLDTAVGYSRDEIKLEVITYEQMRPGSYDVPRRLADMDVNHVQSALCFPTFPRFCGQTFTEAKDRELGLLGVRAYNDWMVEEWCGPDAHGRLIPLTLVPLWDARLAAAEVRRNAARGVRAVAFSEIPPHLGLPSVHTDDWDPFLAACDETGTVIAMHIGSSSRMPSTSADAPPAVGSTITFANCCFSMVDWLMSGKFERFPNLRVMYAEGQIGWIPYILERADVVWEENRGWGGVADKVHRPPSELFAGHVFGCFFDDAFGLRNLDAIGIGNVLYETDYPHSDSTWPKSREVGEAQMGHLEAEVVERIVRGNAIELLGLTDDGLWAGPGGAR | failed |
| MGKVYKKVELVGTSEEGLEAAIQAALARARKTLRHLDWFEVKEIRGTIGEAGVKEYQVVLEVGFRLEET | not failed |
| MKGDRERQADLSPREGPSVPRPVLLQTEPRSVFPGDTSRPWSPAALPARAPGDRWCGRRRRSPGNASYLDSDISEKSRSASEEEKSHALGACHCAENAFQDSQKSLVPSRGQKMTSGTKAKVPLTALSQKWKRDREQTLEAAYVPVVVDPRGQNPDTSIRFSFYNSQYSNSLNPFYTLQKPTCGYLYQRETDHTRKRFDVPPANLILWRT | failed |
| MNMAHTTTSMEIFGSPEQVWQLIGGFNSLPDWLPYIPSSKLTEGGRVRHLANPDGDTIIERLEVFNDKERYYTYSIMNAPFPVTNYLSTIQVKEGTESNTSLVEWSGTFTPVEVSDEEAINLFHGIYSDGLKALQQAFLDLEHHHHHH | not failed |
| MGQKAKAQAPTTHPRPHTLSSQVAPALPRRPRHAAPESLRQARGEVMKAHLITYGCQMNEYDTHLVQSQLVSFGADIVESPDEADFVLVNTCAVRGKPVDKVRSLLGDLRKQKAQRSLVVGMMGCLAQLEEGQQIARKFEVDVLLGPGSLLDIGAALESNERFWGLQFKDELHDHIPPPPSGKLQAHLTIMRGCDHHCTYCIVPTTRGPQVSRHPDDILRELDMQLAAGVREVTLLGQNVNAYGVDQGAKLKGYPSFADLLRMVGASGIERVKFTTSHPMNFTEDVAAAIGETPAICEFVHLPVQSGSDRVLRRMAREYNREKYLTHIAQIKKHIPDVVLATDIIVGFPGETEEDFQDTLSLYDEVGYDSAYMFIYSPRPGTPSYKHFQDLPRELKTERLQRLIARQKDWSARKNAQKVGTVQQVLLRGDAHDAGFLEGHTRGNHPTVVPKAIGADGAGVYQVRIDHATPHMMYGHILGPDGQPLPEQPRFNPEAAAVGGALPML | failed |
| MSELIKHSSNFLAAISPDNDCSITATNDFEAMMSWLNGYKKKPINTSRNYAREVKRYLIWLSCQGLTLAQVKIEDVYEYFNLLERPTTEWIIPDKKTDKIYPTQLIKYGGLSNRSINYTHTVLGLFYSFLQDAGYLTKNPINLEHHHHHH | failed |
| MEEKRRRARVQGAWAAPVKSQAIAQPATTAKSHLHQKPGQTWKNKEHHLSDREFVFKEPQQVVRRAPEPRVIDREGVYEISLSPTGVSRVCLYPGFVDVKEADWILEQLCQDVPWKQRTGIREDITYQQPRLTAWYGELPYTYSRITMEPNPHWHPVLRTLKNRIEENTGHTFNSLLCNLYRNEKDSVDWHSDDEPSLGRCPIIASLSFGATRTFEMRKKPPPEENGEYTYVERVKIPLDHGTLLIMEGATQADWQHRVPKEYHSREPRVNLTFRTVYPDPRGAPW | failed |
| MYPKKQACCPAMVMPYTLHAERTRVEVIPERGGLISRWQWQGHELLYLDRERFANPQFSVRGGIPLLFPICGNLPEDAFHDNGQTYHLKQHGFARDLPWQVLDQRQHVLKLGLQDTPATRQVYPFAFHLTLTYTLAADALAIALEVANPGDIPLPFSFGLHPYFAVADKHQLQFDLPIHAMVDQKTQQPLTFSGTFDWSAAELDWACRPLTGQVARVFDLQQQYCLTLRYDTAFTTLVFWTVQGKPYYCLEPWTAPRNALNTGVDLLHVPPQKHLTLGVEIAVAPL | failed |
| MASTAVSELVFFIVTLLITASAVAVLSDQTIHIVYGMQSSSQRTTDMIQENFAIINNPDQIPYDNGYVFYIKNTGSVGFAFDNTSISVLVDGSAVTGKYVKFISLENSSILVPGQVGEIVVNETLSGYNSITISLGTGVSHTFNFEV | failed |
| MAHGVNIYNVYSISIIALLASSFLLYAQEAKGLENAMLFLSIIFPYAFYLNGHILLYLVLPAYLIVTSSVTFHYYIYELIPTLIYYFGILPKFINYNVRLMTILWES | failed |
| MEPSCTQNGMKPKLKISDLSRSLGPGIMMAAAAVGGSHLVASTKAGAIYGWEMLLLILAVNLLKYPFFRAGVQYTLGTGDSIIQGYHKLGRGYLWVFLVLSAISAVVNTAALLLFSASLLGYFLPFDLSLNVLSSIVLITCITILFAGHFKALDKLSKLIMATLTIATTIALGVAFSNGAVAPTDYQGPSVWSIASIGFLVITMGWMPAPIEISSITSMWLKRQCQTQKVTPQSALFDFNVGYIGTAILAVVFLSLGALVLYGSGIEFKASGIGFSHQLVGIYAATIGEWSRYLIAVIAFFCIFGSTITVIDGYSRAVSEAQLLLQRKPLNQPKHYNSWVMIVSVLAITIVTLFISSLMSMLDFAMIMAFITTPIFAALNYILVTKTELPDELRMGAKLKALSIVGLIYLFGFLAIFVWWKWLM | failed |
| MVMLNTHVVECLQACGRCAAACDYCASSCLREGHGADMARCIALDLDCAAACRLCAAMMARESEFSTHMCTLCARICEVCGDECARHEPRHCQECATACHACASACRAMARPLEHHHHHH | not failed |
| MVEIFLRTLPFFVIIGLGFWAGRTRFFTPEATAYLTKFVFFFALSAMLFRFAATLPFAEIFNGQLVMGYLWGTAGVYGIASLVAFLRKLDVPTAAVEAQCAAIGNVGFLGLPMLAMLFGEAAIGPVMLVLSVDLIVFSSLIVILINGGRDGRLSLGTLRLIGMGLLKNPMIVSISAGLIWSSLRLPIPAPLNDFLTILGGAATPGALFAIGASLAGRSAERVQIAAWLSLCKLVIHPILVALAVLWVFPVDAFSASVAIAAAALPVAGNVYMLAAHYGVAPQRASAAILLSTAVSILTVPAFIAWVTSA | failed |
| AHADFEHLPVALMKFGSDGSLRVANRAARDLLGLGHDAQPDFSDLFEGLGRAVRDWLADVAAERMPGGAEVLRLRRSEEEVFLQIALRRIVEHGRPLVLAVLNDAT | failed |
| MSRRDFTRYVRDKAWLAIPGWLFVAALTLLALRKHLSNLRQHQQLLQGNERIRDSEEQARLILDTAPLALLLVNPQTARIRHANSLAREMLGLPPRDPEQAAGSELNLPLKLQPVEQWLSEGEEVLQQEVELELEDKSRLWAIVSLRRLGHDSQPSALIALYDISGRKLLEQQLHESNQQLAEMAVTDPLTRLYNRRHADMVLRDEISRCERYGQTMAIAVFDIDHFKRFNDQYGHQAGDDVLVAVANALRDTTRNTDINARIGGEEFMVIFPYTRLRDAHKVMSRLQMALTHTTFPFVEQRITFSGGVTDWRPGDSPALMMSRADKLLYDAKQAGRNVVLSDQEEA | failed |
| MGRAHVSTHELVAGRYRLFEVVQRETNRVCWSGEDATTGRPCLVTRIELPEGRAGEAARRAPGRVIRTGETMASLCPGRIAPVLDAVVADGMLWTVTEWVAGVPLGDLLDRRGAFGCARAARVGLELLAVLEAAHTHGVTHGELSPGQVFVREEGSVLVTGFGLAGATLAPRLTAPAYASPEQARDERIGPAADLWTLGAILYTMVEGRPPFRDRGRPEATLKGVDRLPLRTPVRAGPLAQAVTGLLRKNSRERPTRPVVRAALARALAEDPGTAVTEVTTGPGVRGGYAAARTAGRDRSRRTVAAGTALAVVTVAVAVLADLAVTDGLPGRGDGAAAGARQRPSASAAPPTGSAPAAASPGSPSSPAGRPSASASPSKPGVPAPAGFRRYDAPEGFSVALPEGWRRLDTASAPGGAYRVVFGASGDPRTLAVTYSRRAGADPVVVWRDDVEPGLARSDGYRRIGEIRSTTYRGRAAADMEWLVRDDGTRLRTFGRGFLLGGGRSFSLRWTTPAGDWDDSANERALAAFLGTFRDGAA | failed |
| MAKTIYQPAPEAESNIREERSQRPNNRRRILLITVAASVILGLVAILFGGAILNPAATPESEPTMTATQIIPLVILVVMFVVATKWPLNIGVMGLVASFGVGYFMLGMTDKEILADFPANIVITIIGVTYFFSMAQRNGTVDIIVQTCVRLVRGKTLLLPWVFFLLAASLTALGTFSPAAVALLAPAAIGLAYESRIHPVLMGAFIINGAHAGGFSPLSVAGVLVHDIAVKNGFPISQGALFGASFALNLILSVLTVVLFALLGKLRDGATGQHADLDTTRTTRPHGQQILTLALIVAMLVCALGFHMPIGFVALSAGLLLALVNIKEHRTFIGGVSWSTVLLVAGMITYVSLLQHVGVIDTLAEQALALGAPLLIALVLCYVIGVGSAFASSTALLTAFIPLAGPLLATSSLSASGTVAALAIAATVVDVSPFSTDGALVVANAREDDRQRVYKQLMMYAGGVVLVAPALAWALLVPTGIM | failed |
